PMC9482650, “Quantitative fragmentomics allow affinity mapping of interactomes” (Nature Communications, 2022)
Where a chain is given by its changes, count along the chain named.

T1: LIN7A, O14910
T1 sequence (O14910 103-200, limits assumed, looked up): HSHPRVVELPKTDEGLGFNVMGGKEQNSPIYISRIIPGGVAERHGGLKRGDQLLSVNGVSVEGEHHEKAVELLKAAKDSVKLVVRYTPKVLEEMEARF

T2: GRIP1_2, Q9Y3R0
T2 sequence (Q9Y3R0 145-248, limits assumed, looked up): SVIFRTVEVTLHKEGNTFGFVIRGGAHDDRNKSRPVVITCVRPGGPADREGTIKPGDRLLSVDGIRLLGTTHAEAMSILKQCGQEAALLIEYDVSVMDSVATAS

T3: MPP7, Q5T2T1
T3 sequence (Q5T2T1 134-230, limits assumed, looked up): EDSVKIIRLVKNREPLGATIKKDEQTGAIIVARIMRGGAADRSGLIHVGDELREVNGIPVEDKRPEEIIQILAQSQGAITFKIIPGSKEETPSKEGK

T4: ARHGEF11, O15085
T4 sequence (O15085 42-136, limits assumed, looked up): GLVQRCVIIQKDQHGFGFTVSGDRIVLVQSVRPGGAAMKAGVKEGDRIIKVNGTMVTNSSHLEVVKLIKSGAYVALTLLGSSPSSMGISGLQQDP

T5: APBA1_2, Q02410
T5 sequence (Q02410 742-832, limits assumed, looked up): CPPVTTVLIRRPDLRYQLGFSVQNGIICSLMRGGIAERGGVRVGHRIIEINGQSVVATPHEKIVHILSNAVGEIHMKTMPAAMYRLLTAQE

T6: LNX2_2, Q8N448
T6 sequence (Q8N448 334-432, limits assumed, looked up): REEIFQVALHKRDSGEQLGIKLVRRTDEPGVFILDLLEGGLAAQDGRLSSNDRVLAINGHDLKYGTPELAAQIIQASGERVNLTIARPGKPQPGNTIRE

T7: PTPN13_1, Q12923
T7 sequence (Q12923 1088-1188, limits assumed, looked up): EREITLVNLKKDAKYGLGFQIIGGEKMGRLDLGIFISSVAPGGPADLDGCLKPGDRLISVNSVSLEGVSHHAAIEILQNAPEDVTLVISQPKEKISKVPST

T8: APBA2_2, Q99767
T8 sequence (Q99767 654-744, limits assumed, looked up): T5 sequence (Q02410 742-832, limits assumed, looked up) with R10K, R15K, P59A, H65Q, I66A, A70S, Y84F, A89G

T9: SNTG1, Q9NSN8
T9 sequence (Q9NSN8 52-150, limits assumed, looked up): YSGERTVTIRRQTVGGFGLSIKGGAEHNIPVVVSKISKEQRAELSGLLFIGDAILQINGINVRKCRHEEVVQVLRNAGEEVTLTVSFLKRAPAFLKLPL

T10: SYNJ2BP, P57105
T10 sequence (P57105 8-110, limits assumed, looked up): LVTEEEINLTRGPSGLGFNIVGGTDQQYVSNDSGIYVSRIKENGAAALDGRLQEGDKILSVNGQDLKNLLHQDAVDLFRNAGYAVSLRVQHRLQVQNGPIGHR

T11: NHERF3_3, Q5T2W1
T11 sequence (Q5T2W1 238-333, limits assumed, looked up): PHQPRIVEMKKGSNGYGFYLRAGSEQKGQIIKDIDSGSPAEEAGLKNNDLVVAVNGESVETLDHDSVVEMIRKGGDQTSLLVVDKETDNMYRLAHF

T12: SNTA1, Q13424
T12 sequence (Q13424 82-180, limits assumed, looked up): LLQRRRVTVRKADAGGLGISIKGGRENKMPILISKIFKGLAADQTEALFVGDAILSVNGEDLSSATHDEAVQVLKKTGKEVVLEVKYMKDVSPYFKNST

B1: HPV30-E6, P36809 (peptide)
chain: RHTTSTETAV
B2: TMIGD1, Q6UXZ0 (peptide)
chain: DKDPHSETAL
B3: ATP2B4, P23634 (peptide)
chain: SSLQSLETSV

Target: PDZRN4_1, Q6ZMN7
Sequence (Q6ZMN7 213-318): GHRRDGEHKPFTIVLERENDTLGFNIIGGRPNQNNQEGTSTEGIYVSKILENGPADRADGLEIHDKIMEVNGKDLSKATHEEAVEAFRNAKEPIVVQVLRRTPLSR
Test: holdup assay
Parameters: key: below the threshold = too weak to quantify, mostly under pKd 3.1 to 4
Settings: plain residues with an end cap or a label only (N-terminal biotin on a linker: ttds)

Binder	pKd
B1	4.53
B2	4.64
B3	4.79

Target: PICK1, Q9NRD5
Sequence (Q9NRD5 17-115): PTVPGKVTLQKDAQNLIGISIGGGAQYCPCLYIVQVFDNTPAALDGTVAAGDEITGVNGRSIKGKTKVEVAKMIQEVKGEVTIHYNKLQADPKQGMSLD
Test: holdup assay
Parameters: key: below the threshold = too weak to quantify, mostly under pKd 3.1 to 4
Settings: plain residues with an end cap or a label only (N-terminal biotin on a linker: ttds)

Binder	pKd
B1	below the threshold
B2	below the threshold
B3	3.76

Target: T1, LIN7A, O14910
Test: holdup assay
Parameters: key: below the threshold = too weak to quantify, mostly under pKd 3.1 to 4
Settings: plain residues with an end cap or a label only (N-terminal biotin on a linker: ttds)

Binder	pKd
B1	3.8
B2	below the threshold
B3	4.04

Target: T2, GRIP1_2, Q9Y3R0
Test: holdup assay
Parameters: key: below the threshold = too weak to quantify, mostly under pKd 3.1 to 4
Settings: plain residues with an end cap or a label only (N-terminal biotin on a linker: ttds)

Binder	pKd
B1	3.78
B2	below the threshold
B3	3.58

Target: Inadl_8, Q8NI35
Sequence (Q8NI35 1425-1530): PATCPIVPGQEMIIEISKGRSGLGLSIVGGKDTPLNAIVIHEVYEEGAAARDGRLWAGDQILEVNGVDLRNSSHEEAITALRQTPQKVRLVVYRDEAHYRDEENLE
Test: holdup assay
Parameters: key: below the threshold = too weak to quantify, mostly under pKd 3.1 to 4
Settings: plain residues with an end cap or a label only (N-terminal biotin on a linker: ttds)

Binder	pKd
B1	3.94
B2	below the threshold
B3	3.54

Target: DLG4_2, P78352
Sequence (P78352 155-259): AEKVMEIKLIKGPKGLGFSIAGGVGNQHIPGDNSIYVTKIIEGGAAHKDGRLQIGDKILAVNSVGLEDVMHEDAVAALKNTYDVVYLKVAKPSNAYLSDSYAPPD
Test: holdup assay
Parameters: key: below the threshold = too weak to quantify, mostly under pKd 3.1 to 4
Settings: plain residues with an end cap or a label only (N-terminal biotin on a linker: ttds)

Binder	pKd
B1	5.45
B2	3.78
B3	5.18

Target: T3, MPP7, Q5T2T1
Test: holdup assay
Parameters: key: below the threshold = too weak to quantify, mostly under pKd 3.1 to 4
Settings: plain residues with an end cap or a label only (N-terminal biotin on a linker: ttds)

Binder	pKd
B1	below the threshold
B2	below the threshold
B3	below the threshold

Target: Inadl_4, Q8NI35
Sequence (Q8NI35 547-651): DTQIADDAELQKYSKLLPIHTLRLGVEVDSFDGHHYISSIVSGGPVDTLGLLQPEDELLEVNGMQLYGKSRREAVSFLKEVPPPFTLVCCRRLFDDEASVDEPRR
Test: holdup assay
Parameters: key: below the threshold = too weak to quantify, mostly under pKd 3.1 to 4
Settings: plain residues with an end cap or a label only (N-terminal biotin on a linker: ttds)

Binder	pKd
B1	below the threshold
B2	below the threshold
B3	below the threshold

Target: T4, ARHGEF11, O15085
Test: holdup assay
Parameters: key: below the threshold = too weak to quantify, mostly under pKd 3.1 to 4
Settings: plain residues with an end cap or a label only (N-terminal biotin on a linker: ttds)

Binder	pKd
B1	4.35
B2	4.28
B3	4.43

Target: NOS1, P29475
Sequence (P29475 9-101): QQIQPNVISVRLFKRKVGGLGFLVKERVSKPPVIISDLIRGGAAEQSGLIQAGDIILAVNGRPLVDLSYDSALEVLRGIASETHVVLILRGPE
Test: holdup assay
Parameters: key: below the threshold = too weak to quantify, mostly under pKd 3.1 to 4
Settings: plain residues with an end cap or a label only (N-terminal biotin on a linker: ttds)

Binder	pKd
B1	4.63
B2	3.86
B3	4.04

Target: T5, APBA1_2, Q02410
Test: holdup assay
Parameters: key: below the threshold = too weak to quantify, mostly under pKd 3.1 to 4
Settings: plain residues with an end cap or a label only (N-terminal biotin on a linker: ttds)

Binder	pKd
B1	4.23
B2	3.65
B3	4.13

Target: SNX27, Q96L92
Test: holdup assay
Parameters: key: below the threshold = too weak to quantify, mostly under pKd 3.1 to 4
Settings: plain residues with an end cap or a label only (N-terminal biotin on a linker: ttds)

Binder	pKd
B1	5.64
B2	5.49
B3	5.7

Target: IL16_4, Q14005
Sequence (Q14005 1229-1329): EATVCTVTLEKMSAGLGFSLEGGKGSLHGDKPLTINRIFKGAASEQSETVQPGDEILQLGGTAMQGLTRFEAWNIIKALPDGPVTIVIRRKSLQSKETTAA
Test: holdup assay
Parameters: key: below the threshold = too weak to quantify, mostly under pKd 3.1 to 4
Settings: plain residues with an end cap or a label only (N-terminal biotin on a linker: ttds)

Binder	pKd
B1	below the threshold
B2	below the threshold
B3	below the threshold

Target: T6, LNX2_2, Q8N448
Test: holdup assay
Parameters: key: below the threshold = too weak to quantify, mostly under pKd 3.1 to 4
Settings: plain residues with an end cap or a label only (N-terminal biotin on a linker: ttds)

Binder	pKd
B1	3.77
B2	below the threshold
B3	4.01

Target: T7, PTPN13_1, Q12923
Test: holdup assay
Parameters: key: below the threshold = too weak to quantify, mostly under pKd 3.1 to 4
Settings: plain residues with an end cap or a label only (N-terminal biotin on a linker: ttds)

Binder	pKd
B1	below the threshold
B2	below the threshold
B3	3.5

Target: PARD3_3, Q8TEW0
Sequence (Q8TEW0 582-685): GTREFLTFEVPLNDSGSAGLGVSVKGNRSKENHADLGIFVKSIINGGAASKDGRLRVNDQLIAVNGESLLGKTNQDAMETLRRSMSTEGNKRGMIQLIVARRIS
Test: holdup assay
Parameters: key: below the threshold = too weak to quantify, mostly under pKd 3.1 to 4
Settings: plain residues with an end cap or a label only (N-terminal biotin on a linker: ttds)

Binder	pKd
B1	below the threshold
B2	3.74
B3	3.87

Target: MAGI1_1, Q96QZ7
Sequence (Q96QZ7 1-106): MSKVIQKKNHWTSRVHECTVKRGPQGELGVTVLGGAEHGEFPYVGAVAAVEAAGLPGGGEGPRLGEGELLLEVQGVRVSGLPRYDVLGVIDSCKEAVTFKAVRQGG
Test: holdup assay
Parameters: key: below the threshold = too weak to quantify, mostly under pKd 3.1 to 4
Settings: plain residues with an end cap or a label only (N-terminal biotin on a linker: ttds)

Binder	pKd
B1	below the threshold
B2	below the threshold
B3	3.71

Target: GRIP2_4, Q9C0E4
Sequence (Q9C0E4 446-548): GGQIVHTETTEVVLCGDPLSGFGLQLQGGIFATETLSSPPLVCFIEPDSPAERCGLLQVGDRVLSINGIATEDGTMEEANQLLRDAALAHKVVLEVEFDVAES
Test: holdup assay
Parameters: key: below the threshold = too weak to quantify, mostly under pKd 3.1 to 4
Settings: plain residues with an end cap or a label only (N-terminal biotin on a linker: ttds)

Binder	pKd
B1	3.66
B2	below the threshold
B3	below the threshold

Target: Inadl_2, Q8NI35
Sequence (Q8NI35 238-335): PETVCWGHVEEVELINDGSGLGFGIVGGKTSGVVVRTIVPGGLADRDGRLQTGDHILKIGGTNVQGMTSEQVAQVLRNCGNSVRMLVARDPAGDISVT
Test: holdup assay
Parameters: key: below the threshold = too weak to quantify, mostly under pKd 3.1 to 4
Settings: plain residues with an end cap or a label only (N-terminal biotin on a linker: ttds)

Binder	pKd
B1	below the threshold
B2	below the threshold
B3	below the threshold

Target: T8, APBA2_2, Q99767
Test: holdup assay
Parameters: key: below the threshold = too weak to quantify, mostly under pKd 3.1 to 4
Settings: plain residues with an end cap or a label only (N-terminal biotin on a linker: ttds)

Binder	pKd
B1	below the threshold
B2	below the threshold
B3	3.59

Target: T9, SNTG1, Q9NSN8
Test: holdup assay
Parameters: key: below the threshold = too weak to quantify, mostly under pKd 3.1 to 4
Settings: plain residues with an end cap or a label only (N-terminal biotin on a linker: ttds)

Binder	pKd
B1	4.94
B2	4.1
B3	5.08

Target: T10, SYNJ2BP, P57105
Test: holdup assay
Parameters: key: below the threshold = too weak to quantify, mostly under pKd 3.1 to 4
Settings: plain residues with an end cap or a label only (N-terminal biotin on a linker: ttds)

Binder	pKd
B1	5.36
B2	4.42
B3	5.66

Target: DLG4_1, P78352
Sequence (P78352 62-152): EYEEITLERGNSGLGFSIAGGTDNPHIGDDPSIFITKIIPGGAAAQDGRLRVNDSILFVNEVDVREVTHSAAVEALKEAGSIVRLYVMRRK
Test: holdup assay
Parameters: key: below the threshold = too weak to quantify, mostly under pKd 3.1 to 4
Settings: plain residues with an end cap or a label only (N-terminal biotin on a linker: ttds)

Binder	pKd
B1	4.92
B2	below the threshold
B3	4.78

Target: T11, NHERF3_3, Q5T2W1
Test: holdup assay
Parameters: key: below the threshold = too weak to quantify, mostly under pKd 3.1 to 4
Settings: plain residues with an end cap or a label only (N-terminal biotin on a linker: ttds)

Binder	pKd
B1	below the threshold
B2	below the threshold
B3	below the threshold

Target: GIPC2, Q8TF65
Sequence (Q8TF65 112-203): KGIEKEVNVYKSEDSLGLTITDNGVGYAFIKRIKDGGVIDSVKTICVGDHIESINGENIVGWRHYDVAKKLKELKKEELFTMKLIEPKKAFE
Test: holdup assay
Parameters: key: below the threshold = too weak to quantify, mostly under pKd 3.1 to 4
Settings: plain residues with an end cap or a label only (N-terminal biotin on a linker: ttds)

Binder	pKd
B1	3.96
B2	below the threshold
B3	4.16

Target: T12, SNTA1, Q13424
Test: holdup assay
Parameters: key: below the threshold = too weak to quantify, mostly under pKd 3.1 to 4
Settings: plain residues with an end cap or a label only (N-terminal biotin on a linker: ttds)

Binder	pKd
B1	4.72
B2	4.07
B3	4.91
